Substitutions are numbered along the chain they refer to.

The chains are these.
T1: human FcγRIIb (human, UniProt P31994)
T1 chain: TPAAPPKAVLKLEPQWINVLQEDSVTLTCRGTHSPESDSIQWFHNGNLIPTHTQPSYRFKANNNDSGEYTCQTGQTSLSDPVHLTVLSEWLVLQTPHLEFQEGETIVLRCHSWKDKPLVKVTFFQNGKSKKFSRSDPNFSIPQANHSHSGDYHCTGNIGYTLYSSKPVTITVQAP

T2: human FcγRIa (human, UniProt P12314)
T2 chain: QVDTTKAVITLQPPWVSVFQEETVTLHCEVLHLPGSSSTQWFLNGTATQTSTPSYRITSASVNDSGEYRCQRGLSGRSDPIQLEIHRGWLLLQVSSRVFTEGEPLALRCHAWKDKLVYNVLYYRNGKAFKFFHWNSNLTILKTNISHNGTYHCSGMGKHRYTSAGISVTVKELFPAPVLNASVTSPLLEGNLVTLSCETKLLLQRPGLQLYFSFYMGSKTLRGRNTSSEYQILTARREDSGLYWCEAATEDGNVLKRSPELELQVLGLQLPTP

T3: mouse FcγRIV (mouse, UniProt A0A0B4J1G0)
T3 chain: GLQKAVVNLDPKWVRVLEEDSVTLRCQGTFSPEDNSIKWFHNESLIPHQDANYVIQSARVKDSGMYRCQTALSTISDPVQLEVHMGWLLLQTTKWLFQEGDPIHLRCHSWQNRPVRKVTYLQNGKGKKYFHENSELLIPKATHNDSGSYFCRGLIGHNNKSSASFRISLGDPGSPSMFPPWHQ

T4: mouse FcγRI (mouse, UniProt P26151)
T4 chain: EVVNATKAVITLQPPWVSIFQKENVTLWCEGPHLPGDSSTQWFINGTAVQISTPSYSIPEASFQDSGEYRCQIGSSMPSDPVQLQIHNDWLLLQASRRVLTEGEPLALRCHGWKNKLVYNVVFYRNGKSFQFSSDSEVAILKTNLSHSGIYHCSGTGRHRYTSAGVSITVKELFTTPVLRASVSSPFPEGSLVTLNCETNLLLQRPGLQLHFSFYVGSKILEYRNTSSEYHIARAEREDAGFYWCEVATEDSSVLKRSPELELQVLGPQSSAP

T5: human IL-6 receptor (human, UniProt P08887)
T5 chain: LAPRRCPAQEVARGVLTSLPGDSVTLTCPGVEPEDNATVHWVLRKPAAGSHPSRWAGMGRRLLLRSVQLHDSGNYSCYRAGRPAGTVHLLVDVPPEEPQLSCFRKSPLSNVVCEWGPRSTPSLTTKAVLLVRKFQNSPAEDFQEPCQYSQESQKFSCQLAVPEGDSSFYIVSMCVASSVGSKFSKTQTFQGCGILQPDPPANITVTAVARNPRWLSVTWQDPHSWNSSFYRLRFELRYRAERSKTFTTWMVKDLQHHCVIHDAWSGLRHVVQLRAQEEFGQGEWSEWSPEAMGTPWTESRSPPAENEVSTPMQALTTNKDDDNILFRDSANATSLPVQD

B1: BP262 (antibody)
chain 1: QVQLQESGPGLVKPSETLSLTCAVSGHSISHDHAWSWVRQPPGEGLEWIGFISYSGITNYNPSLQGRVTISRDNSKNTLYLQMNSLRAEDTAVYYCARSLARTTAMDYWGEGTLVTVSSASTKGPSVFPLAPSSKSTSGGTAALGCLVKDYFPEPVTVSWNSGALTSGVHTFPAVLQSSGLYSLSSVVTVPSSSLGTQTYICNVNHKPSNTKVDKKVEPKSCDKTHTCPPCPAPELLGDDSVFLFPPKPKDTLMISRTPEVTCVVVDVSEEDGEVKFNWYVDGVEVHNAKTKPREEQYNSTYRVVSVLTVLHQDWLNGKEYKCKVSNKALPAPIEKTISKAKGQPREPQVYTLPPSRDELTKNQVSLTCLVKGFYPSDIAVEWESNGQPENNYKTTPPVLDSDGSFFLYSKLTVDKSRWQQGNVFSCSVMHEALHNHYTQESLSLSP
chain 2: not shown
B2: BP268 (antibody)
chain 1: B1 chain 1 with E235D, Y298D
chain 2: not shown
B3: BP269 (antibody)
chain 1: B1 chain 1 with Y298D
chain 2: not shown
B4: BP239 (antibody)
chain 1: B1 chain 1 with E235D, L236Y, S269Q, E270D, Y298D, K328A, A332R
chain 2: not shown
B5: BP228 (antibody)
chain 1: B1 chain 1 with L236Y, S269Q, E270D, K328D, A332R
chain 2: not shown
B6: BP237 (antibody)
chain 1: B1 chain 1 with E235D, L236Y, S269Q, E270D, Y298D, K328A, A332K
chain 2: not shown
B7: BP464 (antibody)
chain 1: B1 chain 1 with E235D, S269A, A332R, P398Y
chain 2: not shown
B8: BP455 (antibody)
chain 1: B1 chain 1 with E235D, S269A, A332R, P398L
chain 2: not shown
B9: BP220 (antibody)
chain 1: B1 chain 1 with E235D, E270D, Y298D, A332K
chain 2: not shown
B10: BP243 (antibody)
chain 1: B1 chain 1 with E235D, L236Y, E270D, A332R
chain 2: not shown
B11: BP233 (antibody)
chain 1: B1 chain 1 with L236Y, E270H, A332K
chain 2: not shown
B12: BP246 (antibody)
chain 1: B1 chain 1 with E235D, S269Q, E270D, Y298D, K328A, A332R
chain 2: not shown
B13: BP249 (antibody)
chain 1: B1 chain 1 with E235D, L236Y, E270D, Y298D, A332R
chain 2: not shown
B14: BP350 (antibody)
chain 1: B1 chain 1 with E235D, S269E
chain 2: not shown
B15: BP367 (antibody)
chain 1: B1 chain 1 with E235D, E271D
chain 2: not shown
B16: VH3/L(WT)-mIgG1-mF44 (antibody)
chain 1: QVQLQESGPGLVKPSETLSLTCAVSGHSISHDHAWSWVRQPPGEGLEWIGFISYSGITNYNPSLQGRVTISRDNSKNTLYLQMNSLRAEDTAVYYCARSLARTTAMDYWGEGTLVTVSSAKTTPPSVYPLAPGSAAQTNSMVTLGCLVKGYFPEPVTVTWNSGSLSSGVHTFPAVLQSDLYTLSSSVTVPSSTWPSETVTCNVAHPASSTKVDKKIVPRDCGCKPCICTVPEVSSVFIFPPKPKDVLTITLTPKVTCVVVDISKDDPEVQFSWFVDDVEVHTAQTQPREEQFNSTFRSVSELPIMHQDWLNGKEFKCRVNSADFPAPIEKTISKTKGRPKAPQVYTIPPPKEQMAKDKVSLTCMITDFFPEDITVEWQWNGQPAENYKNTQPIMDTDGSYFVYSKLNVQKSNWEAGNTFTCSVLHEGLHNHHTEKSLSHSPGK
chain 2: not shown
B17: VH3/L(WT)-mIgG1 (antibody)
chain 1: B16 chain 1 with D323A
chain 2: not shown
B18: VH3/L(WT)-mIgG1-mF46 (antibody)
chain 1: B16 chain 1 with S235D
chain 2: not shown
B19: 2B261 (antibody)
chain 1: B1 chain 1 with E235D, D239G, E270H, G273P, Y298D
chain 2: not shown
B20: BP151 (antibody)
chain 1: B1 chain 1 with E235D, L236Y, E270H, G273P, K328A, A332R
chain 2: not shown
B21: BP130 (antibody)
chain 1: B1 chain 1 with E235D, D239G, E270H, G273P, V325M, A332K
chain 2: not shown
B22: BP084 (antibody)
chain 1: B1 chain 1 with D239G, E270H, G273P, V325M, A332K
chain 2: not shown
B23: BP182 (antibody)
chain 1: B1 chain 1 with E235D, D239G, E270H, Y298D, A332K
chain 2: not shown
B24: 6RL#9-IgG1 (antibody, V domains shown)
VH: QVQLVQSGAEVKKPGASVKVSCKASGYTFTSYYMHWVRQAPGQGLEWMGIINPSGGSTSYAQKFQGRVTMTRDTSTSTVYMELSSLRSEDTAVYYCARDDPGGGEYYFDYWGQGTLVTVSS
VL: QSVLTQPPSVSGAPGQRVTISCTGSRSNMGAGYDVHWYQLLPGAAPKLLISHNTHRPSGVPDRFSGSKSGASASLAITGLQAEDEADYYCQSHDSSLSAVVFGGGTKLTVLS
B25: FH4-IgG1 (antibody, V domains shown)
VH: QVQLVQSGAEVKKPGSSVKVSCKASGGTFSSYAISWVRQAPGQGLEWMGGIIPIFGTANYAQKFQGRVTITADESTSTAYMELSSLRSEDTAVYYCARERDYYDSSGYYDAFDIWGQGTMVTVSS
VL: ETTVTQSPSFLSASVGDRVTITCITTTDIDDDMNWFQQEPGKAPKLLISEGNILRPGVPSRFSSSGYGTDFTLTISKLQPEDFATYYCLQSDNLPFTFGQGTKLEIKR

The first assay has as its target T1, human FcγRIIb. In words: SPR. Background: Surface plasmon resonance follows binding to a sensor surface in real time, without labels.
The Kd is the concentration at which binding is half-saturated. A higher Kd goes with a looser complex. Molecule B1 came in with a Kd of 120 nM. B2: binding was characterised by a dissociation constant (Kd) of 92 nM. B3: binding was put at a Kd of 110 nM.

For another assay, the target named is T1, human FcγRIIb. The experiment in a line: SPR. The source holds these as a separate data set.
For B4, binding was characterised by a dissociation constant (Kd) of 60 nM. B5 showed a Kd of 40 nM.

On to B6, for which the Kd came to 100 nM.

Another assay addresses T1, human FcγRIIb. In words: SPR. The source holds these as a separate data set.
The molecule B7 had a Kd of 4 nM. B8 showed a Kd of 4 nM.

The target in a further assay is T2, human FcγRIa. In words: SPR.
The molecule B9 displayed a dissociation constant Kd of 20 nM.

On to B10, for which the Kd worked out at 3 nM. Molecule B11 had a Kd of 70 nM. On the same count and under the same terms, as for B12, the figure is 8 nM; as for B13, 7 nM.

A further assay has as its target T1, human FcγRIIb. The experiment in a line: SPR. The source holds these as a separate data set.
B14 had a Kd of 100 nM. On the same count and under the same terms, with B15 the figure was 100 nM.

In the next assay the target is T3, mouse FcγRIV. The experiment in a line: SPR.
B16: the binding result is reported as “no binding”. As to B17, the binding result is “no binding”.

Turning to B18, the binding result is “no binding”.

For the next assay, the target named is T1, human FcγRIIb. The experiment in a line: SPR. The source holds these as a separate data set.
In turn, B19 registered a Kd of 1000 nM. As for B20, the Kd was 40 nM. On to B21, for which the affinity, expressed as Kd, was 300 nM. Same read-out and setting: as for B22, the figure is 500 nM.

A further assay addresses T4, mouse FcγRI. The experiment in a line: SPR.
As to B16, the binding result is recorded as “no binding”. As for B17, the binding result is “no binding”. For the molecule B18, the binding result was “no binding”.

The target in another assay is T2, human FcγRIa. In words: SPR. This is another data set of the same source.
B19 showed a Kd of 9 nM. The same measure, in the same setting: with B23 the figure was 10 nM; with B22, 7 nM.

Another assay has as its target T2, human FcγRIa. The experiment in a line: SPR. The source holds these as a separate data set.
B1 yielded a Kd of 10 nM.

B2 had a Kd of 4.5 nM. For the molecule B3, the Kd was found to be 14 nM.

The target in the next assay is T5, human IL-6 receptor. In words: SPR, pH 7.4, 3 uM Ca, 37C.
As to B24, the Kd was above 31000 nM.

For B25, the Kd was above 34000 nM.
